According to paper doi:10.1101/586255v1:

System: N[C@@H](CO)C(=O)O
Assay: purified protein, by the assay type
Conditions: pH 7.6; 37.0 °C

## HsSerRS (Homo sapiens)
  Km: 1083 ± 156 µM
